T1: mouse MSR1 extracellular domain expressed with a N-terminal nonahistidine tag (His9-mMSR1); R&D Systems, Cat … (mouse, UniProt P30204 79-458)
T1 construct: extracellular domain; not shown: N-terminal nonahistidine tag
T1 sequence (looked up): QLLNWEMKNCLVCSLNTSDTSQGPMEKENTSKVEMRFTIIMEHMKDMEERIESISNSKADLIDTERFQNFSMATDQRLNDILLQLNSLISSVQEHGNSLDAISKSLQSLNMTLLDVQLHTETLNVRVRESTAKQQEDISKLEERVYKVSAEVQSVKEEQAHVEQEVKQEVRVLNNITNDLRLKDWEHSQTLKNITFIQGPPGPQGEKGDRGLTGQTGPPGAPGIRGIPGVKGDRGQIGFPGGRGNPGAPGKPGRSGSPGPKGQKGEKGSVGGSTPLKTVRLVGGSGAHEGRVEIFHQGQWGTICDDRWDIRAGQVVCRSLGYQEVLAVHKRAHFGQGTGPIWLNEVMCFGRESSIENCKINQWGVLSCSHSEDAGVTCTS

T2: human MSR1 extracellular domain expressed with a N-terminal nonahistidine tag (His9-hMSR1); R&D Systems, Cat … (human, UniProt P21757 77-451)
T2 construct: extracellular domain; also called His-hMSR1; 9xHis-hMSR1; not shown: N-terminal nonahistidine tag
T2 sequence (looked up): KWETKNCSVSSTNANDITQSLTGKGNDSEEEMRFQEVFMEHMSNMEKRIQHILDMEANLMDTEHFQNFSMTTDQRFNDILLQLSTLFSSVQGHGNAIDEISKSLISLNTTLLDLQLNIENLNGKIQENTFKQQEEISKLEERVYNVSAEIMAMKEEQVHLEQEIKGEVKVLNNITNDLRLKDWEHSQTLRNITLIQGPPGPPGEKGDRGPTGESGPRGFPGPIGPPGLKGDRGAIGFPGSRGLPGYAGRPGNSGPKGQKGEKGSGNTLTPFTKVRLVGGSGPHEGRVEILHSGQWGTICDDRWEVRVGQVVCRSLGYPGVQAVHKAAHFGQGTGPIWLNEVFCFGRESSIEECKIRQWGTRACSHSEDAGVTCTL

T3: monkey MSR1 extracellular domain expressed with a N-terminal hexahistidine-myc-myc tag (HMM-mfMSR1) (monkey (Macaca fascicularis))
T3 chain: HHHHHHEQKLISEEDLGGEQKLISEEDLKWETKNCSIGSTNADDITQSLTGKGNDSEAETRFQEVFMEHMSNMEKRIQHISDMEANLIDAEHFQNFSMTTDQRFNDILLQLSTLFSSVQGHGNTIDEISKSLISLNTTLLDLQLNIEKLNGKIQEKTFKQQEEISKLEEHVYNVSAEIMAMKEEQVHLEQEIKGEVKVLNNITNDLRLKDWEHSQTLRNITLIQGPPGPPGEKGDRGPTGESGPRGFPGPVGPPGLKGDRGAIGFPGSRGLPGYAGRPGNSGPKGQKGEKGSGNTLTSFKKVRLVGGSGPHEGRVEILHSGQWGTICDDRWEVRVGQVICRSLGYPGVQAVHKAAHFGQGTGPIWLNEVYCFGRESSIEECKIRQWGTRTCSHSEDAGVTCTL


How the values were obtained:
[1] = target: T1, mouse MSR1 extracellular domain …; assay: BLI Octet, 25 C, antibody captured
[2] = target: T2, human MSR1 extracellular domain …; assay: SPR Biacore, 25 C, antibody captured;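 further: rates from 1:1 fit with mass transport limitation of real-time sensorgrams, HEPES-buffered saline with EDTA and Tween-20 at pH 7.4, KD and t½ derived from the kinetic rates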
Description: (§1) Binding affinities and kinetic constants of human anti-MSR1 antibodies for different MSR1 reagents were determined by real-time surface plasmon resonance (Biacore 4000). All binding studies were performed in 10 mM HEPES, 150 mM NaCl, 3 mM EDTA, and 0.05% v/v Surfactant Tween-20, pH 7.4 (HBS-ET) running buffer at 25° C. and 37° C.
(§2) The association rate (kₐ) and dissociation rate (kd) were determined by fitting the real-time binding sensorgrams to a 1:1 binding model with mass transport limitation using Scrubber 2.0c curve-fitting software. Binding dissociation equilibrium constant (KD) and dissociative half-life (t½) were calculated from the kinetic rates as:

[3] = target: T3, monkey MSR1 extracellular domain …; assay: SPR Biacore, 25 C, antibody captured;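 further: rates from 1:1 fit with mass transport limitation of real-time sensorgrams, HEPES-buffered saline with EDTA and Tween-20 at pH 7.4, KD and t½ derived from the kinetic rates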
Description: as §1, §2

[4] = target: T2, human MSR1 extracellular domain …; assay: SPR Biacore, 37 C, antibody captured
Description: as §1, §2

[5] = target: T3, monkey MSR1 extracellular domain …; assay: SPR Biacore, 37 C, antibody captured
Description: as §1, §2

Row | Binder | binding result [1] | Kd [2] [nM] | koff [2] [s⁻¹] | kon [2] [M⁻¹ s⁻¹] | t½ [2] [min] | Kd [3] [nM] | koff [3] [s⁻¹] | kon [3] [M⁻¹ s⁻¹] | t½ [3] [min] | Kd [4] [nM] | koff [4] [s⁻¹] | kon [4] [M⁻¹ s⁻¹] | t½ [4] [min] | Kd [5] [nM] | koff [5] [s⁻¹] | kon [5] [M⁻¹ s⁻¹] | t½ [5] [min]
1 | H1H27734P-N297Q (antibody, V domains shown, Human IgG1 Fc with N297Q point mutation) VH: EVQLVESRGGLVQPGGSLRLSCAASGFTFSSYAMSWVRQAPGKGLEWVSAISGSGGSTFYADSVKGRFTISRDNSKNTVYLQMNSLRAEDTAVYYCAKALVLRFLEWLGDYWGQGTLVTVSS VL: DIQMTQSPSTLSASVGDRVTITCRASQSISSWLAWFQQKPGKAPKLLIYKASSLESGVPSRFSGSGSGTEFTLTISSLQPDDFATYYCQQYKSYWTFGQGTKVEIKR | no binding (tested: 50 nM) | 2.64 | 0.00111 | 420000 | 10 | 6.88 | 0.00291 | 423000 | 4 | 1.74 | 0.0019 | 1.09e+06 | 6 | 3.37 | 0.0032 | 949000 | 4
2 | H1H27747P-N297Q (antibody, V domains shown, Human IgG1 Fc with N297Q point mutation) VH: QVQLVESGGAVVQPGRSLRLSCAASGFTFSYYGMHWVRQAPGKGLEWVAVISYDGSKKYYADSVKGRFTISRDNSKNTLYLQMNSLRAEDTAVYYCAKDLTVDFYYGMDVWGQGTTVTVSS VL: DIQMTQSPSSVSASVGDRVTITCRASQGISSWLAWYQQKPGKAPKLLIYATSSLQSGAPSRFSGSGSGTDFTLTISSLQPEDFATYFCQQANSFPYTFGQGTKLEIKR | no binding (tested: 50 nM) |  |  |  |  | 3.78 | 0.000874 | 231000 | 13 | 5.37 | 0.00276 | 513000 | 4 | 3.47 | 0.00228 | 657000 | 5
3 | H1H27756P-N297Q (antibody, V domains shown, Human IgG1 Fc with N297Q point mutation) VH: QVQLVESGGGVVQPGRSLRLSCAASGFTFSNYDMHWVRQAPGKGLEWMAVISYDGINKYYADSVKGRFTISRDNSKNTLYLQMNSLRAEDTAVYYCAKGTYSWYFDLWGRGTLVTVSS VL: not shown | no binding (tested: 50 nM) | 0.406 |  |  | 94 | 6.81 |  |  | 5 | 1.16 |  |  | 15 | 3.97 |  |  | 4
4 | H1H27729P-N297Q (antibody, V domains shown, Human IgG1 Fc with N297Q point mutation) VH: QVQLVESGGGLVKPGGSLRLSCAASGFIFSDYYMSWIRQAPGKGLEWVSYISSSGTTIYGDSVKGRFTMSRDNAKNSLYLQMNSLRAEDTAVYYCARNYALFDYWGQGTLVTVSS VL: DIQMTQSPSSLSASVGDRVTITCQASQDISKYLNWYQQKPGKAPKLLIYYTSNLETGVPSRFSGSGSGTDFTFTISSLQPEDIATYYCHQSDYLPFTFGPGTKVDIKR | no binding (tested: 50 nM) | 5.45 | 0.00107 | 197000 | 11 | 7.9 | 0.00212 | 269000 | 5 | 8.53 | 0.00204 | 239000 | 6 | 8.58 | 0.00349 | 407000 | 3.3
5 | H2aM25685N (antibody, V domains shown, Human variable domains with mouse IgG2a Fc; tied by the numerical identifier) VH: QVQLVQSGAEVREPGASVKLSCKVSGYTLTELSIHWVRQAPGKGLEWMGGFDPEEGETVYAQKFRGRVTLTEDISPDTAYMELSSLTSEDTAVYYCATPRYCNNGICYDYWGQGTLITVSS VL: not shown | no binding (tested: 100 nM) |  |  |  |  |  |  |  |  |  |  |  |  |  |  |  | 

Next, values leading:

Row | binding result [1] | Kd [2] [nM] | koff [2] [s⁻¹] | kon [2] [M⁻¹ s⁻¹] | t½ [2] [min] | Kd [3] [nM] | koff [3] [s⁻¹] | kon [3] [M⁻¹ s⁻¹] | t½ [3] [min] | Kd [4] [nM] | koff [4] [s⁻¹] | kon [4] [M⁻¹ s⁻¹] | t½ [4] [min] | Kd [5] [nM] | koff [5] [s⁻¹] | kon [5] [M⁻¹ s⁻¹] | t½ [5] [min] | Binder
6 | no binding (tested: 50 nM) | 2.03 | 0.00122 | 599000 | 9 | 2.2 | 0.000919 | 417000 | 13 | 2.24 | 0.0023 | 1.03e+06 | 5 | 1.28 | 0.00188 | 1.46e+06 | 6 | H1H27759P-N297Q (antibody, V domains shown, Human IgG1 Fc with N297Q; tied by the numerical identifier; also called H1H27759P2-N297Q; H1xH27759P2) VH: EVQLVESGGGFVQPGGSLRLSCAASGFTFSSYAMSWVRQAPGKGLEWVSAISGTGSNTYYADSVKGRFTISRDNSKNTLYLQMNSLRAEDTAVYYCAKDRVTTVTYYFDYWGQGTLVTVSS VL: not shown
7 | no binding (tested: 50 nM) | 0.174 | 2.24e-05 | 129000 | 515 | 0.477 | 4.69e-05 | 98200 | 247 | 0.462 | 0.000132 | 286000 | 88 | 0.674 | 0.000187 | 278000 | 62 | H1H27731P-N297Q (antibody, V domains shown, Human IgG1 Fc with N297Q point mutation) VH: QLQLQESGPGLVKPSETLSLTCTVSGGSISRISYYWGWIRQPPGKGLEWIGSIYDSGSTYYNPSLKSRVTISIDTSKNQFSLKLSSVTAADTAVYYCVRYSSSSAFAFDYWGQGTLVTVSS VL: DIQMTQSPSSVSASVGDRVTITCRASQGISSWLAWYQQKPGKAPKLLIYAASSLQSGVPSRFSGSGSGTDFTLTISSLQPEDFATYYCQQANSFPFTFGPGTKVDIKR
8 | no binding (tested: 50 nM) | 0.172 | 0.000305 | 1.78e+06 | 38 | 1.01 | 0.000749 | 744000 | 15 |  |  |  |  | 1.55 | 0.0018 | 1.17e+06 | 6 | H1H27751P-N297Q (antibody, V domains shown, Human IgG1 Fc with N297Q point mutation) VH: EVQLVESGGGLVQPGGSLRLSCAASGFTFSNYAMHWVRQAPGKGLEYVSAISSNGGSTYYADSVKGRITISRDNSKNTLYLQMGSLRAEDMAVYYCARGRPYYYYFGMDVWGQGTTVTVSS VL: not shown
9 | no binding (tested: 50 nM) | 2.74 | 0.00103 | 375000 | 11 | 0.41 | 0.000144 | 352000 | 80 | 3.72 | 0.00288 | 776000 | 4 | 0.374 | 0.000842 | 2.25e+06 | 14 | H1H27739P-N297Q (antibody, V domains shown, Human IgG1 Fc with N297Q point mutation) VH: EVQLVESGGGLVQPGGSLRLSCTASGFTFSSYAMSWVRQAPGKGLEWVSAISGTGSSTYFTDSVKGRFAISRDNSKNTLYLQMNSLRAEDTAVYYCAKDGEWLSTVTLFDYWGQGTLVTVSS VL: EIVMTQSPATLSVSPGERATLSCRASQSVSSNLAWYQQKPGQAPRLLIYGASTRATGIPARFSGSGSGTDFTLTISSLQSEDFALYYCQQYFIWPPHPTFGPGTKVDIKR
10 | no binding (tested: 50 nM) | 1.85 | 0.00183 | 989000 | 6 | 1.59 | 0.00199 | 1.25e+06 | 6 | 0.64 | 0.00196 | 3.06e+06 | 6 | 0.698 | 0.00197 | 2.82e+06 | 6 | H1H27762P-N297Q (antibody, V domains shown, Human IgG1 Fc with N297Q; tied by the numerical identifier; also called H1H27762P2-N297Q; H1H27762P2) VH: QVQLVQSGAEVKKPGSSVKVSCKASGGTFSRYDISWVRQAPGQGLEWMGGIIPIFGTSNYAQKFQGRVTITTDESTSTVYMELSSLRSEDTAVYYCARGGRYGWFDPWGQGTLVTVSS VL: not shown
11 | no binding (tested: 50 nM) | 2 |  |  | 13 | 1.93 |  |  | 16 | 1.74 |  |  | 6 |  |  |  | 7 | H1H27760P-N297Q (antibody, V domains shown, Human IgG1 Fc with N297Q; tied by the numerical identifier; also called H1H27760P2-N297Q; H1H27760P2) VH: EVQLVESGGGLVQPGRSLRLSCAASGFTFDAYAMHWVRQAPGKGLEWVSGISWNSGSIGYADSVKGRFTISRDNAKNSLYLQMNSLREEDTALYYCAKDKILELYYYGMDVWGQGTTVTVSS VL: not shown

— patent US20190367631A1 (Regeneron, published 2019)
